Measurements from article PMC2735845.

Target: RecQ;SSB113 (Escherichia coli;Escherichia coli, UniProt P15043;P0AGE0 1-609;2-178, |P177S)
Experiment: EMSA

B1: 3'-OH partial duplex (o100/o30) (mixed)
DNA 1: GACGCTCGGTTCGTCTAGGACCGTCATTAGTATGTTGATATACATAGACCTTACCGCAGTGATTCGCTTGTCAGTCCATTGAAGCACAATTACCCACGC
DNA 2: CTAATGACGGTCCTAGACGAACCGAGCGTC
binding result: binds
